Measured values reported in US20260151494A1 (ARO BIOTHERAPEUTICS, published 2026).

Legend:
[1] = target: T1, human CD71 extracellular domain (human, UniProt P02786 89-760); assay: primary ELISA; note: test concentration or dose not given here
T1 construct: also called hCD71; human CD71-ECD

[2] = target: T2, apical domain of cynomolgus CD71 (cynomolgus, UniProt A0A2K5X958 189-383); assay: primary ELISA; note: test concentration or dose not given here
T2 construct: domain: apical domain; also called Cyno apical domain

[3] = target: T1, human CD71 extracellular domain; assay: primary ELISA, signal ratio to HSA
[4] = target: T2, apical domain of cynomolgus CD71; assay: primary ELISA, signal ratio to HSA

T1 sequence (P02786 89-760): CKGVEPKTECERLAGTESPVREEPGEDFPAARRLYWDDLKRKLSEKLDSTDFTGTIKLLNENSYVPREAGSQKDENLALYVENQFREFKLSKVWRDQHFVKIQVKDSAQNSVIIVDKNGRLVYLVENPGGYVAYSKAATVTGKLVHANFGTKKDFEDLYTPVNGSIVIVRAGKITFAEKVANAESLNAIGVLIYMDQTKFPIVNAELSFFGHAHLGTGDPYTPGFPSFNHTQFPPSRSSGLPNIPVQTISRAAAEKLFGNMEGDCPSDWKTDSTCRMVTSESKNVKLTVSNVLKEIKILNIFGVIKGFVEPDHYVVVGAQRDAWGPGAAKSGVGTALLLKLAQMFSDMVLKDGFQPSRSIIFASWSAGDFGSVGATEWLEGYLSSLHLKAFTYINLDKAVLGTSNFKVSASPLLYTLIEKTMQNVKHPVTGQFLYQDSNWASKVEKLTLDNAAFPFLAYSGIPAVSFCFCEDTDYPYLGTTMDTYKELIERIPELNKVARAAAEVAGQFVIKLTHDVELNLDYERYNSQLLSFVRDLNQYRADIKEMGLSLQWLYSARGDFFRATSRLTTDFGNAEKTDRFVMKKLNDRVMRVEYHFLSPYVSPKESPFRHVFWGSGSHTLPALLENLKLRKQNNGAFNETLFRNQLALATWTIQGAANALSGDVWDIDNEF
T2 sequence (A0A2K5X958 entry or part of it): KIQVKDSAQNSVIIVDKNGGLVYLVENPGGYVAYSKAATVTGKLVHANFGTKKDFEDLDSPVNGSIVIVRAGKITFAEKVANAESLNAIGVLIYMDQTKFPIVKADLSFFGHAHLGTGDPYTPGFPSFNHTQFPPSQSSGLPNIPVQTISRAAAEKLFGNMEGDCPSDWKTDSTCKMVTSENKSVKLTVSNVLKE

B1: CD71-binding FN3 domain of SEQ ID NO: 149 (designed binder)
chain: MSLPAPKNLVVSRVTEDSARLSWTAPDAAFDSFDIGYFELRYYGEAIVLTVPGSERSYDLTGLKPGTEYWVSIGGVKGGTYSAPLSAIFTT
RLU [1]: 3.77e+06 RLU
RLU [2]: 5e+06 RLU
hCD71:HSA [3]: 342
Cyno apical domain:HSA [4]: 455

B2: CD71-binding FN3 domain of SEQ ID NO: 169 (designed binder)
chain: MSLPAPKNLVVSRVTEDSARLSWTAPDAAFDSFEIGYFENLYLGEAIVLTVPGSERSYDLTGLKPGTEYWVQIGGVKGGNWSAPLSATFTT
RLU [1]: 2.63e+06 RLU
RLU [2]: 4.35e+06 RLU
hCD71:HSA [3]: 289
Cyno apical domain:HSA [4]: 478

B3: CD71-binding FN3 domain of SEQ ID NO: 173 (designed binder)
chain: MSLPAPKNLVVSRVTEDSARLSWTAPDAAFDSFEIAYQELSLWGEAIVLTVPGSERSYDLTGLKPGTEYYVHIGGVKGGIWSSPLVAHFTT
RLU [1]: 4.41e+06 RLU
RLU [2]: 5.65e+06 RLU
hCD71:HSA [3]: 234
Cyno apical domain:HSA [4]: 300

B4: CD71-binding FN3 domain of SEQ ID NO: 182 (designed binder)
chain: MSLPAPENLVVSRVTEDSARLSWTAPDAAFDSFEIGYWENAYKGEAIVLTVPGSERSYDLTGLKPGTEYVVFIGGVKGGVWSVPLSVIFTT
RLU [1]: 3.81e+06 RLU
RLU [2]: 4.96e+06 RLU
hCD71:HSA [3]: 101
Cyno apical domain:HSA [4]: 131

B5: CD71-binding FN3 domain of SEQ ID NO: 166 (designed binder)
chain: MSLPAPKNLVVSRVTEDSARLSWTAPDAAFDSFEIGYFENLYLGEAIVLTVPGSERSYDLTGLKPGTEYWVQIGGIKGGNWSAPLSAIFTT
RLU [1]: 4.44e+06 RLU
RLU [2]: 5.02e+06 RLU
hCD71:HSA [3]: 153
Cyno apical domain:HSA [4]: 173

B6: CD71-binding FN3 domain of SEQ ID NO: 177 (designed binder)
chain: MSLPAPKNLVVSRVTEDSARLSWTAPDAAFDSFEIGYFENLYLGEAIVLTVPGSERSYDLTSLKPGTEYWVQIGGVKGGNWSAPLSAIFTT
RLU [1]: 3.22e+06 RLU
RLU [2]: 4.54e+06 RLU
hCD71:HSA [3]: 110
Cyno apical domain:HSA [4]: 156

B7: CD71-binding FN3 domain of SEQ ID NO: 151 (designed binder)
chain: MSLPAPKNLVVSRITEDSARLSWTAPDAAFDSFEIAYFETCRTGEAIVLTVPGSERSYDLTGLKPGTEYRVWIGGVKGGVWSRPLSAIVTT
RLU [1]: 4.04e+06 RLU
RLU [2]: 5.1e+06 RLU
hCD71:HSA [3]: 22
Cyno apical domain:HSA [4]: 28

B8: CD71-binding FN3 domain of SEQ ID NO: 184 (designed binder)
chain: MSLPAPKNLVVSRVTEDSARPSWTAPDAAFDSFEIAYFERTWFGEAIVLTVPGSERSYDLTGLKPGTEYWVQIGGVKGGDWSKPLSAIFTT
RLU [1]: 3.74e+06 RLU
RLU [2]: 5.08e+06 RLU
hCD71:HSA [3]: 74
Cyno apical domain:HSA [4]: 101

B9: CD71-binding FN3 domain of SEQ ID NO: 158 (designed binder)
chain: MSLPAPKNLVVSRVTEDSARLSWTAPDAAFDSFEIAYFERTWFGEAIVLTVPGSERSYDLTGLKPGTEYWVQIGGVKGGDWSKPLSAIFTT
RLU [1]: 4.48e+06 RLU
RLU [2]: 4.63e+06 RLU
hCD71:HSA [3]: 96
Cyno apical domain:HSA [4]: 99

B10: CD71-binding FN3 domain of SEQ ID NO: 183 (designed binder)
chain: MSLPAPKNLVISRVTEDSARLSWTAPDAAFDSFEIVYAEPVRFGEAIVLTVPGSERSYDLTGLKPGTEYWVQIGGVKGGEWSSPLSAIFTT
RLU [1]: 3.19e+06 RLU
RLU [2]: 4.47e+06 RLU
hCD71:HSA [3]: 108
Cyno apical domain:HSA [4]: 15

B11: CD71-binding FN3 domain of SEQ ID NO: 155 (designed binder)
chain: MSLPAPENLVVSRVTEDSARLSWTAPDAAFDSFEIGYFENLYLGEAIVLTVPGSERSYDLTGLKPGTEYWVQIGGVKGGVWSRPLSAIFTT
RLU [1]: 3.55e+06 RLU
RLU [2]: 5.19e+06 RLU
hCD71:HSA [3]: 151
Cyno apical domain:HSA [4]: 220

B12: CD71-binding FN3 domain of SEQ ID NO: 164 (designed binder)
chain: MSLPAPKNLVVSRVTEDSARLSWTAPDAAFDSFFIGYLEPQPPGEAIHLYVPGSERSYDLTGLKPGTEYWVQIGGVKGGNWSAPLSAIFTT
RLU [1]: 5.55e+06 RLU
RLU [2]: 3.78e+06 RLU
hCD71:HSA [3]: 286
Cyno apical domain:HSA [4]: 195

B13: CD71-binding FN3 domain of SEQ ID NO: 172 (designed binder)
chain: MSRPAPKNLVVSRVTEDSARLSWTAPGAAFDSFEIAYFERTWFGEAIVLTVPSSERSYDLTGLKPGTEYWVQIGGVKGGDWSKPLSAIFTT
RLU [1]: 4.34e+06 RLU
RLU [2]: 5.23e+06 RLU
hCD71:HSA [3]: 31
Cyno apical domain:HSA [4]: 37

B14: CD71-binding FN3 domain of SEQ ID NO: 152 (designed binder)
chain: MSLPAPKNLVVSRVTEDSARLSWTAPDAAFDSFDIGYFEATYYGEAIVLTVPGSERSYDLTGLKPGTEYWVQIGGVKGGNWSAPLSAIFTT
RLU [1]: 2.36e+06 RLU
RLU [2]: 4.21e+06 RLU
hCD71:HSA [3]: 164
Cyno apical domain:HSA [4]: 291

B15: CD71-binding FN3 domain of SEQ ID NO: 175 (designed binder)
chain: MSLPAPKNLVVSRVTEDSARLSWTAPDAAFDSFEIAYQELSLWGEAIVLTVPGSERSYDLTGLKPGTEYVVFIGGVKGGVWSVPLSAIFTT
RLU [1]: 1.01e+06 RLU
RLU [2]: 4.29e+06 RLU
hCD71:HSA [3]: 21
Cyno apical domain:HSA [4]: 91

B16: CD71-binding FN3 domain of SEQ ID NO: 160 (designed binder)
chain: MSLPAPKNLVVSRVTEDSARLSWTAPDAAFDSFEIGYFENLYLGEAIVLTVPGSERSYDLTGLKPGTEYWVQIGGVKGGNWSVPLSAIFTT
RLU [1]: 4.38e+06 RLU
RLU [2]: 5.02e+06 RLU
hCD71:HSA [3]: 88
Cyno apical domain:HSA [4]: 100

B17: CD71-binding FN3 domain of SEQ ID NO: 170 (designed binder)
chain: MSLPAPKNLVVSRVTEDSARLSWTAPDAAFDSFEIGYFENLYLGEAIVLTVPGSERSYDLTGLKPGTEYWVQIGGVKGGNWSTPLSAIFTT
RLU [1]: 3.81e+06 RLU
RLU [2]: 5e+06 RLU
hCD71:HSA [3]: 127
Cyno apical domain:HSA [4]: 166

B18: CD71-binding FN3 domain of SEQ ID NO: 156 (designed binder)
chain: MSLPAPKNLVVSRVTEDSARLSWTAPDAAFDSFEIGYFEMSWTGEAIVLTVPGSERSYDLTGLKPGTEYVVFIGGVKGGNWSAPLSAIFTT
RLU [1]: 3.68e+06 RLU
RLU [2]: 4.43e+06 RLU
hCD71:HSA [3]: 69
Cyno apical domain:HSA [4]: 83

B19: CD71-binding FN3 domain of SEQ ID NO: 150 (designed binder)
chain: MSLPAPKNLVVSRVTEDSARLSWTAPDAAFDSFDIGYFENSYAGEAIVLTVPGSERSYDLTGLKPGTEYYVSIAGVKGGRFSPPLSAIFTT
RLU [1]: 3.49e+06 RLU
RLU [2]: 4.18e+06 RLU
hCD71:HSA [3]: 98
Cyno apical domain:HSA [4]: 118

B20: CD71-binding FN3 domain of SEQ ID NO: 176 (designed binder)
chain: MSLPAPKNLVVSRVTEDSARLSWTAPDAAFDSFFIGYLEPQPPGEAIHLFVPGSERSYDLTGLKPGTEYWVQIGGVKGGNWSAPLSAIFTT
RLU [1]: 7.01e+06 RLU
RLU [2]: 6.06e+06 RLU
hCD71:HSA [3]: 172
Cyno apical domain:HSA [4]: 149

B21: CD71-binding FN3 domain of SEQ ID NO: 174 (designed binder)
chain: MSLPAPKNLVVSRVTEDSARLSWTAPNAAFDSFEIGYFENLYLGEAIVLTVPGSERSYDLTGLKPGTEYWVQIGGVKGGNWSAPLSAIFTT
RLU [1]: 3.61e+06 RLU
RLU [2]: 4.71e+06 RLU
hCD71:HSA [3]: 127
Cyno apical domain:HSA [4]: 165

B22: CD71-binding FN3 domain of SEQ ID NO: 171 (designed binder)
chain: MSLPAPKNLVVSRVTEDSARLSWTAPDAAFDSFEIGYFENLYLGEAIVLTVPGSERSYDLTGLKPGTEYWVQIGGVKGGEWSSPLSAIFTT
RLU [1]: 4.4e+06 RLU
RLU [2]: 4.93e+06 RLU
hCD71:HSA [3]: 109
Cyno apical domain:HSA [4]: 122

B23: CD71-binding FN3 domain of SEQ ID NO: 159 (designed binder)
chain: MSLPAPKNLVVSRVTEDSARLSWTAPDAAFDSFEIVYQENSAYGEAIVLTVPGSERSYDLTGLKPGTEYWVQIGGVKGGNWSAPLSAISTT
RLU [1]: 2.64e+06 RLU
RLU [2]: 4.77e+06 RLU
hCD71:HSA [3]: 40
Cyno apical domain:HSA [4]: 72

B24: CD71-binding FN3 domain of SEQ ID NO: 181 (designed binder)
chain: MSLPAPKNLVVSRVTEDSARLSWTAPDAAFDSFEIGYFENDYFGEAIVLTVPGSERSYDLTGLKPGTEYWVQIGGVKGGNWSAPLSAIFTT
RLU [1]: 2.84e+06 RLU
RLU [2]: 4.61e+06 RLU
hCD71:HSA [3]: 133
Cyno apical domain:HSA [4]: 216

B25: CD71-binding FN3 domain of SEQ ID NO: 157 (designed binder)
chain: MSLPAPKNLVVSRVTEDSARLSWTAPDAAFDSFEIGYGEFTYYGEAIVLTVPGSERSYDLTGLKPGTEYWVQIGGVKGGNWSNPLSAIFTT
RLU [1]: 2.89e+06 RLU
RLU [2]: 4.32e+06 RLU
hCD71:HSA [3]: 355
Cyno apical domain:HSA [4]: 530
